Residue numbers refer to the chain shown, from its start. Names may count otherwise. Like-named read-outs stand apart in the source and are kept apart here. Each block holds one molecule with its values, some of them ahead of it.
Columns and labels:
[1] = target: T1, human CTLA-4 (human, UniProt P16410 36-223); test: flow cytometry, cells with human CTLA-4; protein from CHO
T1 construct: whole, on cells

[2] = target: T2, human ICOS (human, UniProt Q9Y6W8 21-199); test: flow cytometry, cells with human ICOS; protein from CHO
T2 construct: whole, on cells
T2 sequence (looked up): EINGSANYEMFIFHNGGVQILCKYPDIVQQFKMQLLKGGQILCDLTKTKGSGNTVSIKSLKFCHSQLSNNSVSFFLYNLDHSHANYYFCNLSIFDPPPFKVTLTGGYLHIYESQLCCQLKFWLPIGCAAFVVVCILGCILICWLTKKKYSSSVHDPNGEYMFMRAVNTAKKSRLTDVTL

[3] = target: human CD28 (human) (UniProt P10747); test: flow cytometry, cells with human CD28; protein from CHO
[4] = target: CD80 (ligand of the blocking assay) (UniProt P33681); test: competition, flow cytometry: CD80 on CHO cells expressing CD28
[5] = target: CD86 labeled with AlexaFluor-647 (UniProt P42081); test: competition, flow cytometry: labelled CD86 on CHO cells expressing CD28
[6] = target: human CD28, full-length, on transfected cells (human) (UniProt P10747); test: flow cytometry on transfected HEK293 cells
[7] = target: T2, human ICOS; test: flow cytometry, cells with human ICOS; protein from 293
[8] = target: T3, human CD28 (human, UniProt P10747 19-220); test: flow cytometry, cells with human CD28; protein from CHO
T3 construct: whole, on cells

[9] = target: T1, human CTLA-4; test: flow cytometry, cells with human CTLA-4; protein from 293
[10] = target: T1, human CTLA-4; test: flow cytometry, cells with human CTLA-4; protein from CHO; remark: listed apart in the source
[11] = target: T2, human ICOS; test: flow cytometry, cells with human ICOS; protein from CHO; remark: listed apart in the source
[12] = target: T1, human CTLA-4; test: flow cytometry, cells with human CTLA-4; protein from CHO; remark: listed apart in the source
[13] = target: T2, human ICOS; test: flow cytometry, cells with human ICOS; protein from CHO; remark: listed apart in the source
[14] = target: T3, human CD28; test: flow cytometry, cells with human CD28; protein from 293
[15] = target: T3, human CD28; test: flow cytometry, cells with human CD28; protein from CHO; remark: listed apart in the source
[16] = target: T4, ICOSL labeled with AlexaFluor-647 (UniProt O75144 19-256, limits assumed, labeled with AlexaFluor-647); test: competition, flow cytometry: labelled ICOSL on CHO cells expressing ICOS
T4 sequence (looked up): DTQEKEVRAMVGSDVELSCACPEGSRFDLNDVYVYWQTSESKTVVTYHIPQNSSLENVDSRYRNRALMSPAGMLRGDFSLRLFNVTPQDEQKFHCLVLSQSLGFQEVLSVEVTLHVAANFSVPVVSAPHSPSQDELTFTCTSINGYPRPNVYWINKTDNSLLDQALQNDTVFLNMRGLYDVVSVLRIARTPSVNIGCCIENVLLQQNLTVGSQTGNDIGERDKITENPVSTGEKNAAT

[17] = target: T3, human CD28; test: flow cytometry, Expi293 cells with human CD28
Excerpt: (§1) Expi293 cells transfected with cognate binding partners, human CD28, ICOS and CTLA4, were used as target cells in binding studies.

[18] = target: T2, human ICOS; test: flow cytometry, Expi293 cells with human ICOS
Description: Binding studies were carried out on transfected HEK293 cells generated to express the full-length mammalian (human) surface ligands, CD28, ICOS or CTLA-4, using a transient transfection system (Life Technologies, USA). As a control, binding to mock (non-transfected) cells also was assessed. For staining by flow cytometry, 200,000 cells of appropriate transient transfection or negative control (mock) were plated in 96 well round bottom plates, and, then incubated in staining buffer (PBS, phosphate buffered saline; 1% BSA, bovine serum albumin; and 0.1% sodium azide) for 20 minutes to block non-specific binding. Cells were resuspended in staining buffer containing 100 nM to 1 nM variant immunomodulatory protein in 50 μL. Mean Fluorescence Intensity (MFI) was calculated for each transfectant and negative parental line with Cell Quest Pro software (Becton Dickinson, USA) or a Hypercyt flow cytometer (Intellicyte, USA).
as §1

[19] = target: T1, human CTLA-4; test: flow cytometry, Expi293 cells with human CTLA-4
Excerpt: as §1

T1 sequence (P16410 36-223): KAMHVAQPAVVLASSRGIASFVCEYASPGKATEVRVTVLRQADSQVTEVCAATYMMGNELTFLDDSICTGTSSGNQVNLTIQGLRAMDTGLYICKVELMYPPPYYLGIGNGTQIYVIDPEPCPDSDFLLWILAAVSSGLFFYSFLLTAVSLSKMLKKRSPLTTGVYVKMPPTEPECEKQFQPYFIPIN
Chain of CD80 (ligand of the blocking assay) (P33681 35-242 limits assumed): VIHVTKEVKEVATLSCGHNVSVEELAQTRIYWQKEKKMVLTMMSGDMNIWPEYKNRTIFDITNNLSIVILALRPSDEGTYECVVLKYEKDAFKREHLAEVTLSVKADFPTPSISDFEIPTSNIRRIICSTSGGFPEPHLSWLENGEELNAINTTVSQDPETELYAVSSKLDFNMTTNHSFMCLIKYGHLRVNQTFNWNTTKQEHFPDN
Chain of CD86 labeled with AlexaFluor-647 (P42081 24-247 limits assumed): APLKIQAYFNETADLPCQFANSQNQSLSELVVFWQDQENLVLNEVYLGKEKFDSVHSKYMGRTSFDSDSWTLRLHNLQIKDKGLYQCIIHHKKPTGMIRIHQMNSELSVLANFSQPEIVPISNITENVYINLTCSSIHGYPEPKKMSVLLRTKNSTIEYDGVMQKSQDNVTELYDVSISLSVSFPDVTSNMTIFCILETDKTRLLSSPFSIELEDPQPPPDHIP

Molecule: ICOSL ECD Truncation #8 with N207G/L208G and N52H/N57Y/Q100R/C198R and Y151H (from UniProt O75144 19-224) (Fc fusion)
MFI [1]: 368000 MFI
MFI (ΔWT) [1]: 48.6 fold vs WT
MFI [2]: 143000 MFI
MFI [3]: 94200 MFI
MFI (ΔWT) [3]: 54.5 fold vs WT

B3: ICOSL ECD Truncation #7 with N52H/N57Y/Q100R/F172S, Fc fusion (Fc fusion)
chain: DTQEKEVRAMVGSDVELSCACPEGSRFDLNDVYVYWQTSESKTVVTYHIPQHSSLEYVDSRYRNRALMSPAGMLRGDFSLRLFNVTPQDEQKFHCLVLSRSLGFQEVLSVEVTLHVAANFSVPVVSAPHSPSQDELTFTCTSINGYPRPNVYWINKTDNSLLDQALQNDTVSLNMRGLYDVVSVLRIARTPSVNIGCCIENGGGGSGGGGSEPKSSDKTHTCPPCPAPEAEGAPSVFLFPPKPKDTLMISRTPEVTCVVVDVSHEDPEVKFNWYVDGVEVHNAKTKPREEQYNSTYRVVSVLTVLHQDWLNGKEYKCKVSNKALPAPIEKTISKAKGQPREPQVYTLPPSREEMTKNQVSLTCLVKGFYPSDIAVEWESNGQPENNYKTTPPVLDSDGSFFLYSKLTVDKSRWQQGNVFSCSVMHEALHNHYTQKSLSLSPG
MFI (ΔWT) [7]: 0.7 fold vs WT
MFI (ΔWT) [8]: 3.7 fold vs WT
MFI (ΔWT) [9]: 0.8 fold vs WT
MFI (ΔWT) [11]: 0.7 fold vs WT
MFI (ΔWT) [12]: 0.7 fold vs WT
MFI (ΔWT) [14]: 3.4 fold vs WT

B4: variant ICOSL ECD-Fc N52H/N57Y/Q100R/F172S, G4S linker, Fc C220S/L234A/L235E/G237A (SEQ ID NO: 40) (Fc fusion)
chain: DTQEKEVRAMVGSDVELSCACPEGSRFDLNDVYVYWQTSESKTVVTYHIPQHSSLEYVDSRYRNRALMSPAGMLRGDFSLRLFNVTPQDEQKFHCLVLSRSLGFQEVLSVEVTLHVAANFSVPVVSAPHSPSQDELTFTCTSINGYPRPNVYWINKTDNSLLDQALQNDTVSLNMRGLYDVVSVLRIARTPSVNIGCCIENVLLQQNLTVGSQTGNDIGERDKITENPVSTGEKNAATGGGGSEPKSSDKTHTCPPCPAPEAEGAPSVFLFPPKPKDTLMISRTPEVTCVVVDVSHEDPEVKFNWYVDGVEVHNAKTKPREEQYNSTYRVVSVLTVLHQDWLNGKEYKCKVSNKALPAPIEKTISKAKGQPREPQVYTLPPSREEMTKNQVSLTCLVKGFYPSDIAVEWESNGQPENNYKTTPPVLDSDGSFFLYSKLTVDKSRWQQGNVFSCSVMHEALHNHYTQKSLSLSPGK
notes: Made in 293 cells; Fc or allotypes thereof
MFI (ΔWT) [17]: 12.9 fold vs WT
MFI (ΔWT) [18]: 1.4 fold vs WT
MFI (ΔWT) [19]: 22.7 fold vs WT

B7: ICOSL ECD Truncation #4 with N52H/N57Y/Q100R/F172S, Fc fusion (Fc fusion)
chain: DTQEKEVRAMVGSDVELSCACPEGSRFDLNDVYVYWQTSESKTVVTYHIPQHSSLEYVDSRYRNRALMSPAGMLRGDFSLRLFNVTPQDEQKFHCLVLSRSLGFQEVLSVEVTLHVAANFSVPVVSAPHSPSQDELTFTCTSINGYPRPNVYWINKTDNSLLDQALQNDTVSLNMRGLYDVVSVLRIARTPSVNIGCCIENVLLQQNGGGGSGGGGSEPKSSDKTHTCPPCPAPEAEGAPSVFLFPPKPKDTLMISRTPEVTCVVVDVSHEDPEVKFNWYVDGVEVHNAKTKPREEQYNSTYRVVSVLTVLHQDWLNGKEYKCKVSNKALPAPIEKTISKAKGQPREPQVYTLPPSREEMTKNQVSLTCLVKGFYPSDIAVEWESNGQPENNYKTTPPVLDSDGSFFLYSKLTVDKSRWQQGNVFSCSVMHEALHNHYTQKSLSLSPG
MFI (ΔWT) [7]: 0.6 fold vs WT
MFI (ΔWT) [8]: 3.6 fold vs WT
MFI (ΔWT) [9]: 0.7 fold vs WT
MFI (ΔWT) [10]: 49.8 fold vs WT
MFI (ΔWT) [11]: 0.7 fold vs WT
MFI (ΔWT) [12]: 0.7 fold vs WT
MFI (ΔWT) [13]: 1.3 fold vs WT
MFI (ΔWT) [14]: 4.1 fold vs WT
MFI (ΔWT) [15]: 39.7 fold vs WT

B8: ICOSL ECD with N52H/N57Y/Q100R/C198R, Fc C220S/L234A/L235E/G237A (SEQ ID NO: 40) (Fc fusion, not shown: small tags and cut ends)
chain (part 1 of 2): T4 sequence (looked up) with N52H, N57Y, Q100R, C198R
chain (part 2 of 2): EPKSSDKTHTCPPCPAPEAEGAPSVFLFPPKPKDTLMISRTPEVTCVVVDVSHEDPEVKFNWYVDGVEVHNAKTKPREEQYNSTYRVVSVLTVLHQDWLNGKEYKCKVSNKALPAPIEKTISKAKGQPREPQVYTLPPSREEMTKNQVSLTCLVKGFYPSDIAVEWESNGQPENNYKTTPPVLDSDGSFFLYSKLTVDKSRWQQGNVFSCSVMHEALHNHYTQKSLSLSPGK
MFI [9]: 8720 MFI
MFI (ΔWT) [9]: 0.7 fold vs WT
MFI [11]: 7700 MFI
MFI (ΔWT) [11]: 0.7 fold vs WT
MFI [12]: 8750 MFI
MFI (ΔWT) [12]: 0.7 fold vs WT

Next, values leading:

IC50 [4]: 2.5 nM
IC50 [5]: 2.8 nM
Molecule: belatacept (Fc fusion)

MFI [6]: 6000 MFI
Molecule: variant ICOSL ECD-Fc M10I, S13G, N52H, N57Y, D77G, V110A, H129P, I143V, F172S, V193M, C198R (Fc fusion)

MFI (ΔWT) [7]: 1.4 fold vs WT
MFI (ΔWT) [8]: 4.1 fold vs WT
MFI (ΔWT) [9]: 0.7 fold vs WT
MFI (ΔWT) [10]: 42.6 fold vs WT
MFI (ΔWT) [11]: 1.1 fold vs WT
MFI (ΔWT) [12]: 0.7 fold vs WT
MFI (ΔWT) [13]: 1.4 fold vs WT
MFI (ΔWT) [14]: 3.6 fold vs WT
MFI (ΔWT) [15]: 63.9 fold vs WT
B1: ICOSL ECD with N52H/N57Y/Q100R/F172S, Fc fusion with (G4S)2 linker (Fc fusion)
chain: DTQEKEVRAMVGSDVELSCACPEGSRFDLNDVYVYWQTSESKTVVTYHIPQHSSLEYVDSRYRNRALMSPAGMLRGDFSLRLFNVTPQDEQKFHCLVLSRSLGFQEVLSVEVTLHVAANFSVPVVSAPHSPSQDELTFTCTSINGYPRPNVYWINKTDNSLLDQALQNDTVSLNMRGLYDVVSVLRIARTPSVNIGCCIENVLLQQNLTVGSQTGNDIGERDKITENPVSTGEKNAATGGGGSGGGGSEPKSSDKTHTCPPCPAPEAEGAPSVFLFPPKPKDTLMISRTPEVTCVVVDVSHEDPEVKFNWYVDGVEVHNAKTKPREEQYNSTYRVVSVLTVLHQDWLNGKEYKCKVSNKALPAPIEKTISKAKGQPREPQVYTLPPSREEMTKNQVSLTCLVKGFYPSDIAVEWESNGQPENNYKTTPPVLDSDGSFFLYSKLTVDKSRWQQGNVFSCSVMHEALHNHYTQKSLSLSPG
notes: also called ICOSCL ECD with N52H/N57Y/Q100R/F1725

IC50 [16]: 23.3 nM
B2: prezalumab (AMG-557; anti-ICOSL, Creative Biolabs) (antibody, V domains shown)
VH: EVQLVESGGGLVQPGGSLRLSCAASGFTFSSYWMSWVRQAPGKGLEWVAYIKQDGNEKYYVDSVKGRFTISRDNAKNSLYLQMNSLRAEDTAVYYCAREGILWFGDLPTFWGQGTLVTVSS
VL: DIQMTQSPSSLSASVGDRVTITCRASQGISNWLAWYQQKPEKAPKSLIYAASSLQSGVPSRFSGSGSGTDFTLTISSLQPEDFATYYCQQYDSYPRTFGQGTKVEIK

MFI (ΔWT) [17]: 13.4 fold vs WT
MFI (ΔWT) [18]: 1.3 fold vs WT
MFI (ΔWT) [19]: 17.1 fold vs WT
B5: variant ICOSL ECD-Fc N52H/N57Y/Q100P, G4S linker, Fc C220S/L234A/L235E/G237A (SEQ ID NO: 40) (Fc fusion)
chain: B4 chain with R100P, S172F
notes: as for B4

MFI (ΔWT) [7]: 0.8 fold vs WT
MFI (ΔWT) [8]: 4.9 fold vs WT
MFI (ΔWT) [9]: 0.8 fold vs WT
MFI (ΔWT) [10]: 27 fold vs WT
MFI (ΔWT) [11]: 0.7 fold vs WT
MFI (ΔWT) [12]: 0.7 fold vs WT
MFI (ΔWT) [13]: 1.2 fold vs WT
MFI (ΔWT) [14]: 4.7 fold vs WT
MFI (ΔWT) [15]: 49 fold vs WT
B6: ICOSL IgV with N52H/N57Y/Q100R, Fc fusion with (G4S)2 linker (Fc fusion)
chain: DTQEKEVRAMVGSDVELSCACPEGSRFDLNDVYVYWQTSESKTVVTYHIPQHSSLEYVDSRYRNRALMSPAGMLRGDFSLRLFNVTPQDEQKFHCLVLSRSLGFQEVLSVEVTLHVAANFSVGGGGSGGGGSEPKSSDKTHTCPPCPAPEAEGAPSVFLFPPKPKDTLMISRTPEVTCVVVDVSHEDPEVKFNWYVDGVEVHNAKTKPREEQYNSTYRVVSVLTVLHQDWLNGKEYKCKVSNKALPAPIEKTISKAKGQPREPQVYTLPPSREEMTKNQVSLTCLVKGFYPSDIAVEWESNGQPENNYKTTPPVLDSDGSFFLYSKLTVDKSRWQQGNVFSCSVMHEALHNHYTQKSLSLSPG
notes: also called ICOSCL IgV with N52H/N57Y/Q100R

Source: patent US20220218785A1 (ALPINE IMMUNE SCIENCES, published 2022)
